Assay results from article PMC11394972 (International Journal of Molecular Sciences, 2024).

B1: MazF-mt3 (tag-removed form used for crystallization) (enzyme)
chain: GPELMVISRAEIYWADLGPPSGSQPAKRRPVLVIQSDPYNASRLATVIAAVITSNTALAAMPGNVFLPATTTRLPRDSVVNVTAIVTLNKTDLTDRVGEVPASLMHEVDRGLRRVLDL

What was measured:
[1] = molecular target: B1; assay: crystal structure; details: both partners purified
[2] = molecular target: the molecule itself; assay: crystal structure

LTGQIDRALESIHGTDEAEALAVANAYRVLETMDDEW [MazE-mt3 (Leu46-Trp82) peptide]
stoichiometry N [1]: 2 toxin chains per antitoxin chain

B1
stoichiometry N [2]: 2 subunits in the oligomer
